Data reported in patent US20250018053A1 (published 2025).

Target: -
Assay: kinetic binding (Ka/Kdis fit)

B1: Ch-15A7.5 (antibody, V domains shown)
VH: EVKLVESGGGLVQPGGSRKLSCAASGFTFSNYGMAWVRQAPGKGPEWVAFISNLAYGINYADTVTGRFTISRENAKNTLYLEMRSLRSEDTAMYYCARGARATGWFAYWGQGTLVTVSA
VL: DIVMTQSQKFMSTSIGDRVSVTCKASQNVDTHVAWYQEKPGQSPKALIYSASYRYSGVPDRFTGSGSGTDFTLTISNVQSEDLADYFCQQYNSYPLTFGGGTKLEIK
Kd: 45.9 nM
